Laboratory results: the supplement of paper PMC5998384

Tested on: HeLa Kyoto
Test: thermal stability score vs G1/S (z-score of summed log2 fold changes over temperatures); higher = more thermally stable than in G1/S
[1] = cell cycle stage: early G1 (4.5 h after nocodazole release)
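Further: synchronized HeLa Kyoto cells, proteins quantified by TMT10plex mass spectrometry, three biological replicates, mitosis taken 0.5 h after nocodazole release, G1/S directly after double thymidine block.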

Sequence	thermal stability score [1]	thermal stability score (cell cycle stage: mitosis)
MGSNSSRIGDLPKNEYLKKLSGTESISENDPFWNQLLSFSFPAPTSSSELKLLEEATISVCRSLVENNPRTGNLGALIKVFLSRTKELKLSAECQNHIFIWQTHNALFIICCLLKVFICQMSEEELQLHFTYEEKSPGNYSSDSEDLLEELLCCLMQLITDIPLLDITYEISVEAISTMVVFLSCQLFHKEVLRQSISHKYLMRGPCLPYTSKLVKTLLYNFIRQEKPPPPGAHVFPQQSDGGGLLYGLASGVATGLWTVFTLGGVGSKAAASPELSSPLANQSLLLLLVLANLTDASDAPNPYRQAIMSFKNTQDSSPFPSSIPHAFQINFNSLYTALCEQQTSDQATLLLYTLLHQNSNIRTYMLARTDMENLVLPILEILYHVEERNSHHVYMALIILLILTEDDGFNRSIHEVILKNITWYSERVLTEISLGSLLILVVIRTIQYNMTRTRDKYLHTNCLAALANMSAQFRSLHQYAAQRIISLFSLLSKKHNKVLEQATQSLRGSLSSNDVPLPDYAQDLNVIEEVIRMMLEIINSCLTNSLHHNPNLVYALLYKRDLFEQFRTHPSFQDIMQNIDLVISFFSSRLLQAGAELSVERVLEIIKQGVVALPKDRLKKFPELKFKYVEEEQPEEFFIPYVWSLVYNSAVGLYWNPQDIQLFTMDSD [DYM]	0.139	0.823
MHTLVFLSTRQVLQCQPAACQALPLLPRELFPLLFKVAFMDKKTVVLRELVHTWPFPLLSFQQLLQECAHCSRALLQERPSTESMQAVILGLTARLHTSEPGASTQPLCRKHALRVLDMTGLLDDGVEQDPGTMSMWDCTAAVARTCIAQQQGGAAEPGPAPIPVEVRVDLRVNRASYAFLREALRSSVGSPLRLCCRDLRAEDLPMRNTVALLQLLDAGCLRRVDLRFNNLGLRGLSVIIPHVARFQHLASLRLHYVHGDSRQPSVDGEDNFRYFLAQMGRFTCLRELSMGSSLLSGRLDQLLSTLQSPLESLELAFCALLPEDLRFLARSPHAAHLKKLDLSGNDLSGSQLAPFQGLLQASAATLLHLELTECQLADTQLLATLPILTQCASLRYLGLYGNPLSMAGLKELLRDSVAQAELRTVVHPFPVDCYEGLPWPPPASVLLEASINEEKFARVEAELHQLLLASGRAHVLWTTDIYGRLAADYFSL [LRRC14]	-0.753	-0.00668
MIEVVAELSRGPVFLAGEALECVVTVTNPLPPTATSASSEALAWASAQIHCQFHASESRVALPPPDSSQPDVQPDSQTVFLPHRGERGQCILSTPPKILFCDLRLDPGESKSYSYSEVLPIEGPPSFRGQSVKYVYKLTIGCQRVNSPITLLRVPLRVLVLTGLQDVRFPQDEAVAPSSPFLEEDEGGKKDSWLAELAGERLMAATSCRSLHLYNISDGRGKVGTFGIFKSVYRLGEDVVGTLNLGEGTVACLQFSVSLQTEERVQPEYQRRRGAGGVPSVSHVTHARHQESCLHTTRTSFSLPIPLSSTPGFCTAIVSLKWRLHFEFVTSREPGLVLLPPVEQPEPTTWTGPEQVPVDTFSWDLPIKVLPTSPTLASYAAPGPSTSTITI [RGP1]	0.0205	-1.18
MLCLCLYVPVIGEAQTEFQYFESKGLPAELKSIFKLSVFIPSQEFSTYRQWKQKIVQAGDKDLDGQLDFEEFVHYLQDHEKKLRLVFKSLDKKNDGRIDAQEIMQSLRDLGVKISEQQAEKILKSMDKNGTMTIDWNEWRDYHLLHPVENIPEIILYWKHSTIFDVGENLTVPDEFTVEERQTGMWWRHLVAGGGAGAVSRTCTAPLDRLKVLMQVHASRSNNMGIVGGFTQMIREGGARSLWRGNGINVLKIAPESAIKFMAYEQIKRLVGSDQETLRIHERLVAGSLAGAIAQSSIYPMEVLKTRMALRKTGQYSGMLDCARRILAREGVAAFYKGYVPNMLGIIPYAGIDLAVYETLKNAWLQHYAVNSADPGVFVLLACGTMSSTCGQLASYPLALVRTRMQAQASIEGAPEVTMSSLFKHILRTEGAFGLYRGLAPNFMKVIPAVSISYVVYENLKITLGVQSR [SLC25A25]	-0.983	-0.000686
MLIKEYHILLPMSLDEYQVAQLYMIQKKSREESSGEGSGVEILANRPYTDGPGGSGQYTHKVYHVGSHIPGWFRALLPKAALQVEEESWNAYPYTRTRYTCPFVEKFSIEIETYYLPDGGQQPNVFNLSGAERRQRILDTIDIVRDAVAPGEYKAEEDPRLYHSVKTGRGPLSDDWARTAAQTGPLMCAYKLCKVEFRYWGMQAKIEQFIHDVGLRRVMLRAHRQAWCWQDEWTELSMADIRALEEETARMLAQRMAKCNTGSEGSEAQPPGKPSTEARSAASNTGTPDGPEAPPGPDASPDASFGKQWSSSSRSSYSSQHGGAVSPQSLSEWRMQNIARDSENSSEEEFFDAHEGFSDSEEVFPKEMTKWNSNDFIDAFASPVEAEGTPEPGAEAAKGIEDGAQAPRDSEGLDGAGELGAEACAVHALFLILHSGNILDSGPGDANSKQADVQTLSSAFEAVTRIHFPEALGHVALRLVPCPPICAAAYALVSNLSPYSHDGDSLSRSQDHIPLAALPLLATSSSRYQGAVATVIARTNQAYSAFLRSPEGAGFCGQVALIGDGVGGILGFDALCHSANAGTGSRGSSRRGSMNNELLSPEFGPVRDPLADGVEGLGRGSPEPSALPPQRIPSDMASPEPEGSQNSLQAAPATTSSWEPRRASTAFCPPAASSEAPDGPSSTARLDFKVSGFFLFGSPLGLVLALRKTVMPALEAAQMRPACEQIYNLFHAADPCASRLEPLLAPKFQAIAPLTVPRYQKFPLGDGSSLLLADTLQTHSSLFLEELEMLVPSTPTSTSGAFWKGSELATDPPAQPAAPSTTSEVVKILERWWGTKRIDYSLYCPEALTAFPTVTLPHLFHASYWESADVVAFILRQVIEKERPQLAECEEPSIYSPAFPREKWQRKRTQVKIRNVTSNHRASDTVVCEGRPQVLSGRFMYGPLDVVTLTGEKVDVYIMTQPLSGKWIHFGTEVTNSSGRLTFPVPPERALGIGVYPVRMVVRGDHTYAECCLTVVARGTEAVVFSIDGSFTASVSIMGSDPKVRAGAVDVVRHWQDSGYLIVYVTGRPDMQKHRVVAWLSQHNFPHGVVSFCDGLTHDPLRQKAMFLQSLVQEVELNIVAGYGSPKDVAVYAALGLSPSQTYIVGRAVRKLQAQCQFLSDGYVAHLGQLEAGSHSHASSGPPRAALGKSSYGVAAPVDFLRKQSQLLRSRGPSQAEREGPGTPPTTLARGKARSISLKLDSEE [PITPNM1]	0.586	0.463
MSGFENLNTDFYQTSYSIDDQSQQSYDYGGSGGPYSKQYAGYDYSQQGRFVPPDMMQPQQPYTGQIYQPTQAYTPASPQPFYGNNFEDEPPLLEELGINFDHIWQKTLTVLHPLKVADGSIMNETDLAGPMVFCLAFGATLLLAGKIQFGYVYGISAIGCLGMFCLLNLMSMTGVSFGCVASVLGYCLLPMILLSSFAVIFSLQGMVGIILTAGIIGWCSFSASKIFISALAMEGQQLLVAYPCALLYGVFALISVF [YIPF5]	-0.124	-0.361
MSLVPATNYIYTPLNQLKGGTIVNVYGVVKFFKPPYLSKGTDYCSVVTIVDQTNVKLTCLLFSGNYEALPIIYKNGDIVRFHRLKIQVYKKETQGITSSGFASLTFEGTLGAPIIPRTSSKYFNFTTEDHKMVEALRVWASTHMSPSWTLLKLCDVQPMQYFDLTCQLLGKAEVDGASFLLKVWDGTRTPFPSWRVLIQDLVLEGDLSHIHRLQNLTIDILVYDNHVHVARSLKVGSFLRIYSLHTKLQSMNSENQTMLSLEFHLHGGTSYGRGIRVLPESNSDVDQLKKDLESANLTANQHSDVICQSEPDDSFPSSGSVSLYEVERCQQLSATILTDHQYLERTPLCAILKQKAPQQYRIRAKLRSYKPRRLFQSVKLHCPKCHLLQEVPHEGDLDIIFQDGATKTPDVKLQNTSLYDSKIWTTKNQKGRKVAVHFVKNNGILPLSNECLLLIEGGTLSEICKLSNKFNSVIPVRSGHEDLELLDLSAPFLIQGTIHHYGCKQCSSLRSIQNLNSLVDKTSWIPSSVAEALGIVPLQYVFVMTFTLDDGTGVLEAYLMDSDKFFQIPASEVLMDDDLQKSVDMIMDMFCPPGIKIDAYPWLECFIKSYNVTNGTDNQICYQIFDTTVAEDVI [POT1]	0.878	1.25
MSSGNAKIGHPAPNFKATAVMPDGQFKDISLSDYKGKYVVFFFYPLDFTFVCPTEIIAFSDRAEEFKKLNCQVIGASVDSHFCHLAWVNTPKKQGGLGPMNIPLVSDPKRTIAQDYGVLKADEGISFRGLFIIDDKGILRQITVNDLPVGRSVDETLRLVQAFQFTDKHGEVCPAGWKPGSDTIKPDVQKSKEYFSKQK [PRDX1]	-0.285	-1.31
